According to patent US20060148016A1:

Target: Alexa Fluor 594 labelled calmodulin (Molecular Probes)
Experiment: gel filtration assay (Example 3): Alexa Fluor 594 labelled calmodulin eluting with the particles; reference is ferritin particles without binding molecule

- fold signal as compared to particles produced with pET-26(+)rHuLFt: 4.1 fold
Substance: Ferritin based particles expressing cbp on their surface (CBP-Human ferritin light chain fusion protein, plasmid pCBPHFI) (from UniProt P02792 2-175) (peptide)
